Source: PMC9723548, “Sulfate adenylyl transferase kinetics and mechanisms of metabolic inhibitors of microbial sulfate respiration” (ISME Communications, 2021)

T1: sulfate adenylyl transferase (Sat) / ATP sulfurylase (Oleidesulfovibrio alaskensis, UniProt Q30Z34)
T1 construct: gene Dde_2265
T1 sequence (Q30Z34 1-427): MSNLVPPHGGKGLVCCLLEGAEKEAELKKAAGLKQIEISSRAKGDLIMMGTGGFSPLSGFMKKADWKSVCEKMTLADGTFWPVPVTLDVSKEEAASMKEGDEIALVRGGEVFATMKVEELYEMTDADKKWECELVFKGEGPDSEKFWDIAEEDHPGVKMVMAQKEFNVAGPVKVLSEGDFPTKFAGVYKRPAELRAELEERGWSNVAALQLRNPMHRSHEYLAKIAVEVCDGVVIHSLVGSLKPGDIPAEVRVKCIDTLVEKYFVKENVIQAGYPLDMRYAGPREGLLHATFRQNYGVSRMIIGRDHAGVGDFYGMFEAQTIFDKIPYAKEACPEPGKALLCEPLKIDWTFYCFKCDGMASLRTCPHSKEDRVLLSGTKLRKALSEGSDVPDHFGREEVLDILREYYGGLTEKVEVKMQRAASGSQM


Experiments:
[1] = biological target: T1, sulfate adenylyl transferase (Sat) / ATP sulfurylase; assay: pyrophosphate accumulation, modified molybdenum blue assay
purified protein [2] = substrate: O=[Se](=O)(O)O; assay: purified protein
purified protein [3] = substrate: [O]=[Cr](=[O])([OH])[OH]; assay: purified protein; details: alternative substrate in place of sulfate; co-substrate ATP

Row | Molecule | Ki [1] [µM] | Km (purified protein [2]) [µM] | kcat/Km (purified protein [2]) [M⁻¹ s⁻¹] | Km (purified protein [3]) [µM] | kcat (purified protein [3]) [s⁻¹] | kcat/Km (purified protein [3]) [M⁻¹ s⁻¹]
1 | O=[N+]([O-])O [NO3^−] | 3600 ± 270 | – | – | – | – | –
2 | [O-][Cl+2]([O-])O [ClO3^−] | 316 ± 17 | – | – | – | – | –
3 | sulfate adenylyl transferase (Sat) / ATP sulfurylase (Oleidesulfovibrio alaskensis G20) (protein) MSNLVPPHGGKGLVCCLLEGAEKEAELKKAAGLKQIEISSRAKGDLIMMGTGGFSPLSGFMKKADWKSVCEKMTLADGTFWPVPVTLDVSKEEAASMKEGDEIALVRGGEVFATMKVEELYEMTDADKKWECELVFKGEGPDSEKFWDIAEEDHPGVKMVMAQKEFNVAGPVKVLSEGDFPTKFAGVYKRPAELRAELEERGWSNVAALQLRNPMHRSHEYLAKIAVEVCDGVVIHSLVGSLKPGDIPAEVRVKCIDTLVEKYFVKENVIQAGYPLDMRYAGPREGLLHATFRQNYGVSRMIIGRDHAGVGDFYGMFEAQTIFDKIPYAKEACPEPGKALLCEPLKIDWTFYCFKCDGMASLRTCPHSKEDRVLLSGTKLRKALSEGSDVPDHFGREEVLDILREYYGGLTEKVEVKMQRAASGSQM | – | 1770 ± 550 | 160 | 793 ± 140 | 16 | 20000
